Data reported in US20160052993A1.

Assays:
hFcRn (human) = hFcRn (human) (UniProt P61769); assay: ELISA; conditions: other; remark: other sources report otherwise
[1] = molecular target: single-chain human FcRn, FLAG/His-tagged (human) (UniProt P61769); assay: ELISA, HSA variant immobilised, schFcRn titrated, pH 5.5 (asterisk)

Kd (hFcRn (human)) [nM] | Kd [1] [nM] | Substance
32 | – | HSA13+H510F (from UniProt P02768 25-609)
91.8 | – | HSA13+H535F (from UniProt P02768 25-609)
– | 250 | HSA18 (V424I) (from UniProt P02768 25-609)
